The source of these data is PMC2907741 (Biochemistry, 2009).

Data set [1] deals with the molecule itself. Put plainly: thioflavin T fluorescence aggregation assay.
Data set [2] deals with the molecule itself. Put plainly: thioflavin T fluorescence aggregation assay. This is another data set of the same source.

Read-outs that look alike come from different tables or passages of the source. Bridge positions count the residues as written; N and C are the ends. Ends that are not written are not given here.

B1: 5 kDa fragment of plasma gelsolin (173-225), D187N (domain or fragment, human)
chain: ATEVPVSWESFNNGNCFILDLGNNIHQWCGSNSNRYERLKATQVSKGIRDNER
modifications: disulfide 16-29
Take B1: in data set [1], the binding result is listed as “binds”.

B2: 8 kDa fragment of plasma gelsolin (173-242), D187N (domain or fragment, human)
chain: ATEVPVSWESFNNGNCFILDLGNNIHQWCGSNSNRYERLKATQVSKGIRDNERSGRARVHVSEEGTEPEA
modifications: disulfide 16-29
Take B2: in data set [2], the binding result is on record as “binds”.
